Measured values from patent publication EP4536686B1 (GENETHON, dated 2025).
Numbering of substitutions follows the chain as printed.

B1: AAV_Cap9rh74_VR4-4um9.Nat (other)
chain: MAADGYLPDWLEDNLSEGIREWWALKPGAPQPKANQQHQDNARGLVLPGYKYLGPGNGLDKGEPVNAADAAALEHDKAYDQQLKAGDNPYLKYNHADAEFQERLKEDTSFGGNLGRAVFQAKKRLLEPLGLVEEAAKTAPGKKRPVEQSPQEPDSSAGIGKSGAQPAKKRLNFGQTGDTESVPDPQPIGEPPAAPSGVGSLTMASGGGAPVADNNEGADGVGSSSGNWHCDSQWLGDRVITTSTRTWALPTYNNHLYKQISNSTSGGSSNDNAYFGYSTPWGYFDFNRFHCHFSPRDWQRLINNNWGFRPKRLNFKLFNIQVKEVTDNNGVKTIANNLTSTVQVFTDSDYQLPYVLGSAHEGCLPPFPADVFMIPQYGYLTLNDGSQAVGRSSFYCLEYFPSQMLRTGNNFQFSYEFENVPFHSSYAHSQSLDRLMNPLIDQYLYYLSRTQSTDGRGDLGRLGPQQLLFSQAGPNNMSAQAKNWLPGPCYRQQRVSTTLSQNNNSNFAWTGATKYHLNGRDSLVNPGVAMATHKDDEERFFPSSGVLMFGKQGAGKDNVDYSSVMLTSEEEIKTTNPVATEQYGVVADNLQQQNAAPIVGAVNSQGALPGMVWQNRDVYLQGPIWAKIPHTDGNFHPSPLMGGFGMKHPPPQILIKNTPVPADPPTAFNKDKLNSFITQYSTGQVSVEIEWELQKENSKRWNPEIQYTSNYYKSNNVEFAVNTEGVYSEPRPIGTRYLTRNL
notes: Tested as a whole recombinant AAV vector particle packaging CMV-GFP/Luc; also called Cap9rh74_VR4-4um9(LICA.01)
B2: AAV_Cap9rh74_VR4-5ffo.Nat (other)
chain: B1 chain with T453E, D454P, G455R, G460A, R461T, L462I, P464S
notes: Tested as a whole recombinant AAV vector particle packaging CMV-GFP/Luc

Target: T1, integrin heterodimer αVβ6 (ITGAV-B6) (human, UniProt P06756 31-1048; P18564 22-788)
T1 construct: whole, on cells; Species is read from the 'h' prefix of hITGAV and hITGB6; also called ITGAV-B6 heterodimers; hITGAV and hITGB6
Assay: concluding sentence, resting on the infection and luciferase assay in 293_ITGAV-B6 cells; no direct binding assay

T1 sequence (P06756 31-1048, chain 1 of 2): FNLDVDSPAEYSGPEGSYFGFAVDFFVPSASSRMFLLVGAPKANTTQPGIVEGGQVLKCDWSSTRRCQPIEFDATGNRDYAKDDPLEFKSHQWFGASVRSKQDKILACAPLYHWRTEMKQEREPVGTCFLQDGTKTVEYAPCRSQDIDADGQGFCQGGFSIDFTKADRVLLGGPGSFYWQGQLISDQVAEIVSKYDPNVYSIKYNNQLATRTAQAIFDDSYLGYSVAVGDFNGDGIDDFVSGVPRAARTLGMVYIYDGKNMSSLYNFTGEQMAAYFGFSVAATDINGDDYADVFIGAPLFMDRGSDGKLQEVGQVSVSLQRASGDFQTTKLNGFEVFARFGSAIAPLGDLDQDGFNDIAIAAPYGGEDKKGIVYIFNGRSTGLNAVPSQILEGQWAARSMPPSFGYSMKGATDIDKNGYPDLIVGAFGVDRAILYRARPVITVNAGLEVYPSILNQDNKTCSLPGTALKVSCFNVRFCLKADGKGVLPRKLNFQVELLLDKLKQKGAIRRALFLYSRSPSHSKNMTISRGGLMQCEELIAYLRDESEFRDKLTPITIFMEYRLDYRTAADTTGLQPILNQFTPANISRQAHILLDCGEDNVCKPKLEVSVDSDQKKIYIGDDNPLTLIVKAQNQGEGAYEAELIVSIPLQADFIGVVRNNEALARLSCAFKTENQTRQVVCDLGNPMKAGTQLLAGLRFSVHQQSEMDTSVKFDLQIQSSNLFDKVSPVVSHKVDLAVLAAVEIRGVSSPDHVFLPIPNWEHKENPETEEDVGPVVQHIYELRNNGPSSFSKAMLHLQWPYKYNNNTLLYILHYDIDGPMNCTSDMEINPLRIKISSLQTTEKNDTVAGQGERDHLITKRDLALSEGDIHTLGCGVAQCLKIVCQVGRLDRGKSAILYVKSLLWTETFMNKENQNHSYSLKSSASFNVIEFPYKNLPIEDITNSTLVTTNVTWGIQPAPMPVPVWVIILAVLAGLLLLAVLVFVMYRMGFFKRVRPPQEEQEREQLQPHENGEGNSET
T1 sequence (P18564 22-788, chain 2 of 2): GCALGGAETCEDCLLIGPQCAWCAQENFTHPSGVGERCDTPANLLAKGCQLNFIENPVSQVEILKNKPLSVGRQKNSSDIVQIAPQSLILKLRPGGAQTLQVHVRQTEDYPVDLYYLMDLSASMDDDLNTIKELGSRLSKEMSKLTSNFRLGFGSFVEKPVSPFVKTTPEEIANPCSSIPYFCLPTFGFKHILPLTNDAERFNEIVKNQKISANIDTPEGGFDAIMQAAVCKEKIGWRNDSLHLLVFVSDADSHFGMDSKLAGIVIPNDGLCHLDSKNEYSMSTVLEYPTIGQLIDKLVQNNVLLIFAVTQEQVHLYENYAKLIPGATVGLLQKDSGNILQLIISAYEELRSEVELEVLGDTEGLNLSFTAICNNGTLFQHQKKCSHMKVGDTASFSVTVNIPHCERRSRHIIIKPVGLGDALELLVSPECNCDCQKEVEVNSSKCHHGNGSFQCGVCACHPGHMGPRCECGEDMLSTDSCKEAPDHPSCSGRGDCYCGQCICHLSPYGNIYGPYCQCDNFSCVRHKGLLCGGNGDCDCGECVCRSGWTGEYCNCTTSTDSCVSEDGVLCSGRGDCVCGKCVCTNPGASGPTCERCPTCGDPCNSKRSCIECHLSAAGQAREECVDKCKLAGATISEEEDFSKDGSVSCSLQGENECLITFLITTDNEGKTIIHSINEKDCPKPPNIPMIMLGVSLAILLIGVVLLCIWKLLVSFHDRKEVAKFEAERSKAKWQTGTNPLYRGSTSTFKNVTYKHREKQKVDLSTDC

Row | Binder | binding result
1 | B1 | binds
2 | B2 | binds
